Test system: Soluble human recombinant p97 (melanotransferrin)
Sequence (chain, as listed by the source): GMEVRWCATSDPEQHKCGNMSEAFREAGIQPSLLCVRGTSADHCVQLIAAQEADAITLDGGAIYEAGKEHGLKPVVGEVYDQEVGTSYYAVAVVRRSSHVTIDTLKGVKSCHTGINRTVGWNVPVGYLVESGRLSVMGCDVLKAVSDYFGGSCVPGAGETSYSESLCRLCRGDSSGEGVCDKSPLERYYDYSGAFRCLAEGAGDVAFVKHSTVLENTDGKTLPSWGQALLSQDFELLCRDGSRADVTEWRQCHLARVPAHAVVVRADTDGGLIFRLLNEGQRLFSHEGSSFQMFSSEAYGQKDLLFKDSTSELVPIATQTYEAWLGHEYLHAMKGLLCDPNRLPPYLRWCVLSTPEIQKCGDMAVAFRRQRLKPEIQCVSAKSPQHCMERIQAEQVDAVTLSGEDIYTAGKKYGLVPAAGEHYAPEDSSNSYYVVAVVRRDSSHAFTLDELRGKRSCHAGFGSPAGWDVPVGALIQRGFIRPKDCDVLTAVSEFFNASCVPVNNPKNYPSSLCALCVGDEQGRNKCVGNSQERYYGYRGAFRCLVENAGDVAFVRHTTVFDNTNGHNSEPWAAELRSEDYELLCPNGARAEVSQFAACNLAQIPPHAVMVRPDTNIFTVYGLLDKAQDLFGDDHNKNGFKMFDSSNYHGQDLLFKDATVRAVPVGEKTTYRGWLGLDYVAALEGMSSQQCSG

pro-urokinase plasminogen activator (pro-uPA)
VLK-pNA hydrolysis (plasminogen activation by pro-uPA) with 70 nM p97 and 30 nM plasminogen, after 180 min: the VLK-pNA hydrolysis is 4-fold higher after 180 min | VLK-pNA hydrolysis by 90 nM pro-uPA with 70 nM p97, without plasminogen: goes from less than 50 AU/min in the absence of p97 to more than 450 AU/min when p97 is added | half-maximal stimulation of plasminogen cleavage by pro-uPA (initial rates of plasmin activity): half-maximal stimulation occurring at 25±6 nM | increase of catalytic efficiency of plasminogen activation by pro-uPA with 250 nM p97: increasing the catalytic efficiency by a factor of 2.4-fold

Source: patent publication US20070053894
